Source: the supplement of paper PMC7125110
± gives the standard error. This sample holds only a part of the variants without activity.

B1: glmS ribozyme (parent)
chain: AUAAAAGCGCCAGAACUACAGAAAUGUAGUUGACGAGGAGGAGGUUUAUCGAAUUUUCGGCGGAUGCCUCCAAA

What was measured:
Settings in all cases: with glucosamine-6-phosphate
glucosamine-6-phosphate [1] = variants of: B1; assay: self-cleavage kobs at 40 uM GlcN6P; higher = faster cleavage; RNA array
How it was run: (§1)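 Barcoded ribozyme variants on sequenced MiSeq chips were transcribed in situ by E. coli RNA polymerase and followed at 37 °C through a hybridised Cy3 probe. Glucosamine-6-phosphate at 40 μM to 10 mM in HEPES/KCl/Mg(OAc)2 buffer was flowed in, and tiles were imaged over ~14 h. Signals were normalised to baseline and to non-cleaving reference variants, and per-tile medians were fit to one- or two-exponential decays to give kobs. Weighted Michaelis–Menten fits across concentrations gave kcat and KM.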

glucosamine-6-phosphate [2] = variants of: B1; assay: self-cleavage kobs at 160 uM GlcN6P; higher = faster cleavage; RNA array
How it was run: as §1

glucosamine-6-phosphate [3] = variants of: B1; assay: self-cleavage kobs at 640 uM GlcN6P; higher = faster cleavage; RNA array
How it was run: as §1

glucosamine-6-phosphate [4] = variants of: B1; assay: self-cleavage kobs at 2500 uM GlcN6P; higher = faster cleavage; RNA array
How it was run: as §1

glucosamine-6-phosphate [5] = variants of: B1; assay: self-cleavage kobs at 10000 uM GlcN6P; higher = faster cleavage; RNA array
How it was run: as §1

Variant	self-cleavage kobs at 40 uM GlcN6P (glucosamine-6-phosphate [1])	self-cleavage kobs at 160 uM GlcN6P (glucosamine-6-phosphate [2])	self-cleavage kobs at 640 uM GlcN6P (glucosamine-6-phosphate [3])	self-cleavage kobs at 2500 uM GlcN6P (glucosamine-6-phosphate [4])	self-cleavage kobs at 10000 uM GlcN6P (glucosamine-6-phosphate [5])
G9U U31G	< 1e-05 s⁻¹	< 1e-05 s⁻¹	< 1e-05 s⁻¹	< 1e-05 s⁻¹	< 1e-05 s⁻¹
A12U A42G U46G G63U	< 1e-05 s⁻¹	–	–	–	< 1e-05 s⁻¹
A15G C71G	0.000107 ± 1.2e-05 s⁻¹	0.000256 ± 4.1e-05 s⁻¹	0.00066 ± 8.8e-05 s⁻¹	0.00214 ± 0.00045 s⁻¹	–
A36U U69G	3.66e-05 ± 8.9e-06 s⁻¹	0.000214 ± 3.9e-05 s⁻¹	0.000283 ± 5.8e-05 s⁻¹	9.73e-05 ± 2.3e-05 s⁻¹	0.000107 ± 4.1e-05 s⁻¹
A14U G40A G51U	< 1e-05 s⁻¹	–	–	–	–
G37U G40A G41U A52G	< 1e-05 s⁻¹	–	–	–	–
A15U A42C C68G	< 1e-05 s⁻¹	–	–	–	–
C34A C68U	< 1e-05 s⁻¹	< 1e-05 s⁻¹	< 1e-05 s⁻¹	< 1e-05 s⁻¹	< 1e-05 s⁻¹
U56C C61U	< 1e-05 s⁻¹	< 1e-05 s⁻¹	< 1e-05 s⁻¹	< 1e-05 s⁻¹	< 1e-05 s⁻¹
A6C G32C U49G	< 1e-05 s⁻¹	–	–	–	< 1e-05 s⁻¹
C34U G40C G51U C61A G63U	< 1e-05 s⁻¹	–	–	–	–
G37U A39U C70G	< 1e-05 s⁻¹	–	–	–	–
G9A C68G	< 1e-05 s⁻¹	< 1e-05 s⁻¹	< 1e-05 s⁻¹	< 1e-05 s⁻¹	< 1e-05 s⁻¹
C8A G62U	< 1e-05 s⁻¹	< 1e-05 s⁻¹	–	–	5.53e-05 ± 1.6e-05 s⁻¹
A6C C50A	< 1e-05 s⁻¹	–	–	–	< 1e-05 s⁻¹
A36C C50A G62C	< 1e-05 s⁻¹	–	–	–	–
C8U A12C C61G	< 1e-05 s⁻¹	–	–	< 1e-05 s⁻¹	< 1e-05 s⁻¹
A14C C34U G60U	< 1e-05 s⁻¹	–	< 1e-05 s⁻¹	< 1e-05 s⁻¹	< 1e-05 s⁻¹
G29C C61U	< 1e-05 s⁻¹	–	–	–	–
C8U G29A	< 1e-05 s⁻¹	–	–	< 1e-05 s⁻¹	–
G37C U56G	< 1e-05 s⁻¹	< 1e-05 s⁻¹	–	–	–
A33U A39U G44C G63C C67G	< 1e-05 s⁻¹	–	–	–	< 1e-05 s⁻¹
A33C G51A	< 1e-05 s⁻¹	–	–	< 1e-05 s⁻¹	< 1e-05 s⁻¹
A12U A33U U47G U49G U55G C68U	< 1e-05 s⁻¹	–	–	–	–
A33G C34U C68U	< 1e-05 s⁻¹	–	–	–	–

Variant	self-cleavage kobs at 40 uM GlcN6P (glucosamine-6-phosphate [1])	self-cleavage kobs at 160 uM GlcN6P (glucosamine-6-phosphate [2])	self-cleavage kobs at 640 uM GlcN6P (glucosamine-6-phosphate [3])	self-cleavage kobs at 2500 uM GlcN6P (glucosamine-6-phosphate [4])	self-cleavage kobs at 10000 uM GlcN6P (glucosamine-6-phosphate [5])
C10G G32A	< 1e-05 s⁻¹	–	–	–	< 1e-05 s⁻¹
A42G G43U	< 1e-05 s⁻¹	< 1e-05 s⁻¹	< 1e-05 s⁻¹	< 1e-05 s⁻¹	–
A33U G59C	< 1e-05 s⁻¹	–	< 1e-05 s⁻¹	–	< 1e-05 s⁻¹
G7C U30A	< 1e-05 s⁻¹	< 1e-05 s⁻¹	< 1e-05 s⁻¹	< 1e-05 s⁻¹	< 1e-05 s⁻¹
G37A G63C	< 1e-05 s⁻¹	< 1e-05 s⁻¹	< 1e-05 s⁻¹	< 1e-05 s⁻¹	< 1e-05 s⁻¹
C8A G41U C50G	< 1e-05 s⁻¹	–	–	–	–
G44C C67A	0.000178 ± 2.3e-05 s⁻¹	0.00032 ± 9e-05 s⁻¹	0.00196 ± 0.00037 s⁻¹	0.00486 ± 0.0014 s⁻¹	0.00668 ± 0.0019 s⁻¹
A14G C16U G41U	0.000207 ± 7.3e-05 s⁻¹	–	–	–	0.00243 ± 0.00096 s⁻¹
A33C U65G	< 1e-05 s⁻¹	< 1e-05 s⁻¹	< 1e-05 s⁻¹	–	–
A14C A15C C50G G60C C67U	6.66e-05 ± 3e-05 s⁻¹	–	–	–	–
G32A A52U C71A	< 1e-05 s⁻¹	–	–	–	–
U47A A53U	0.000547 ± 6.1e-05 s⁻¹	0.00098 ± 0.0002 s⁻¹	0.00349 ± 0.00062 s⁻¹	0.00324 ± 0.00072 s⁻¹	0.0124 ± 0.0022 s⁻¹
U31G A39G A64G	0.00023 ± 8.9e-05 s⁻¹	–	0.00544 ± 0.0014 s⁻¹	–	0.0288 ± 0.012 s⁻¹
A36C A48C U56A	< 1e-05 s⁻¹	–	–	–	–
C8A C10U C34G	< 1e-05 s⁻¹	–	–	–	–
A39C A52U C71U	< 1e-05 s⁻¹	–	–	–	–
G63U U65G	< 1e-05 s⁻¹	< 1e-05 s⁻¹	< 1e-05 s⁻¹	< 1e-05 s⁻¹	< 1e-05 s⁻¹
G38C U47A C70U	< 1e-05 s⁻¹	–	–	–	–
A39C G62U	< 1e-05 s⁻¹	–	–	< 1e-05 s⁻¹	< 1e-05 s⁻¹
U31A C50G C58A	5.39e-05 ± 1.9e-05 s⁻¹	–	0.00134 ± 0.00032 s⁻¹	0.000414 ± 0.00012 s⁻¹	–
C8U C10U C70G	5.14e-05 ± 2.4e-05 s⁻¹	8.73e-05 ± 2.6e-05 s⁻¹	0.000103 ± 2.5e-05 s⁻¹	0.000587 ± 0.00021 s⁻¹	5.37e-05 ± 1.7e-05 s⁻¹
C10G G37U A42C	< 1e-05 s⁻¹	–	–	–	–
G32U A52G C58A C70A	5.29e-05 ± 2.5e-05 s⁻¹	–	–	–	4.31e-05 ± 2e-05 s⁻¹
U30G G43A	< 1e-05 s⁻¹	< 1e-05 s⁻¹	–	–	–
